{
  "source": "paper PMC9513909",
  "about": "“Genomic distribution and context dependent functionality of novel WRKY transcription factor binding sites”",
  "binders": {"B1": {"name": "S2mut1 (dsDNA)", "DNA 1": "ATCGTCTAAGAGACAGTCCCTCTCGTAACTTTAT", "DNA 2": "ATAAAGTTACGAGAGGGACTGTCTCTTAGACGAT"}, "B2": {"name": "S1mut1 (dsDNA)", "DNA 1": "CACATTTACATTGCAGTCCCTCTTGCATGCCGTC", "DNA 2": "GACGGCATGCAAGAGGGACTGCAATGTAAATGTG"}, "B3": {"name": "S2 (dsDNA)", "DNA 1": "ATCGTCTAAGAGACGACTTTTCTCGTAACTTTAT", "DNA 2": "ATAAAGTTACGAGAAAAGTCGTCTCTTAGACGAT"}, "B4": {"name": "S1 (dsDNA)", "DNA 1": "CACATTTACATTGCGACTTTTCTTGCATGCCGTC", "DNA 2": "GACGGCATGCAAGAAAAGTCGCAATGTAAATGTG"}},
  "key": {"WRKY50BD [1]": {"biological_target": "T1, WRKY50BD (Arabidopsis thaliana, UniProt Q8VWQ5 86-173)", "T1 sequence (Q8VWQ5 86-173)": "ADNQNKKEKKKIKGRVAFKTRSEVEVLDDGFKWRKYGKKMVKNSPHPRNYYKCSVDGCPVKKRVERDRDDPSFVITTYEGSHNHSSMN", "assay": "competition; 4000-fold excess against labelled S2; EMSA with 3' biotin-labelled probes (LightShift kit detection); buffer, salt, pH and temperature not given (earlier protocols cited)", "conditions": "protein: recombinant; label: unlabelled"}, "WRKY70 [2]": {"biological_target": "T2, WRKY70 (Arabidopsis thaliana, UniProt Q9LY00 1-294)", "T2 sequence": "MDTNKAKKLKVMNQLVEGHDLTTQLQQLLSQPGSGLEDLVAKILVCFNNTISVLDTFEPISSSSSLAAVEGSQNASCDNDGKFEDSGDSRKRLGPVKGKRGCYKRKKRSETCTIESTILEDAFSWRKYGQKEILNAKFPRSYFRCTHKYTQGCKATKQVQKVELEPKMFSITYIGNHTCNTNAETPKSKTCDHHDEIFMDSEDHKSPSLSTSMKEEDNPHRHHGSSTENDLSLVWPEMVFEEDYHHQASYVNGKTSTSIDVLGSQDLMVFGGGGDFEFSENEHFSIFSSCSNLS", "assay": "competition; 4000-fold excess against labelled S2; EMSA with 3' biotin-labelled probes (LightShift kit detection); buffer, salt, pH and temperature not given (earlier protocols cited)", "conditions": "protein: recombinant; label: unlabelled"}, "WRKY50BD [3]": {"biological_target": "T1, WRKY50BD", "assay": "competition; 4000-fold excess against labelled S1; EMSA with 3' biotin-labelled probes (LightShift kit detection); buffer, salt, pH and temperature not given (earlier protocols cited)", "conditions": "protein: recombinant; label: unlabelled"}, "WRKY50BD [4]": {"biological_target": "T1, WRKY50BD", "assay": "EMSA; shift abolished or strongly reduced by 4000-fold unlabelled S2; EMSA with 3' biotin-labelled probes (LightShift kit detection); buffer, salt, pH and temperature not given (earlier protocols cited)", "conditions": "protein: recombinant; label: 3' biotin (probe)"}, "WRKY70 [5]": {"biological_target": "T2, WRKY70", "assay": "EMSA; shift abolished or strongly reduced by 4000-fold unlabelled S2; EMSA with 3' biotin-labelled probes (LightShift kit detection); buffer, salt, pH and temperature not given (earlier protocols cited)", "conditions": "protein: recombinant; label: 3' biotin (probe)"}, "WRKY70 [6]": {"biological_target": "T2, WRKY70", "assay": "EMSA; EMSA with 3' biotin-labelled probes (LightShift kit detection); buffer, salt, pH and temperature not given (earlier protocols cited)", "conditions": "protein: recombinant; label: 3' biotin (probe)"}, "WRKY50BD [7]": {"biological_target": "T1, WRKY50BD", "assay": "EMSA; shift abolished or strongly reduced by 4000-fold unlabelled S1; EMSA with 3' biotin-labelled probes (LightShift kit detection); buffer, salt, pH and temperature not given (earlier protocols cited)", "conditions": "protein: recombinant; label: 3' biotin (probe)"}},
  "data": [
    {"binder": "B1", "values": [
      {"measurement": "binding result", "setting": "WRKY50BD [1]", "result": "no binding"},
      {"measurement": "binding result", "setting": "WRKY70 [2]", "result": "no binding"}
    ]},
    {"binder": "B2", "values": [
      {"measurement": "binding result", "setting": "WRKY50BD [3]", "result": "no binding"}
    ]},
    {"binder": "B3", "values": [
      {"measurement": "binding result", "setting": "WRKY50BD [4]", "result": "binds"},
      {"measurement": "binding result", "setting": "WRKY70 [5]", "result": "binds"}
    ]},
    {"binder": "B4", "values": [
      {"measurement": "binding result", "setting": "WRKY70 [6]", "result": "no binding"},
      {"measurement": "binding result", "setting": "WRKY50BD [7]", "result": "binds"}
    ]}
  ]
}
